Assay results from patent KR20200059381A.

What was measured:
[1] = biological target: 불활화 FMDV 혈청형 O (Foot-and-mouth disease virus serotype O)
[2] = biological target: 불활화 FMDV 혈청형 Asia1 (Foot-and-mouth disease virus serotype Asia1)
[3] = biological target: 불활화 FMDV 혈청형 A (Foot-and-mouth disease virus serotype A)
[4] = biological target: 구제역 바이러스 혈청형 O 배양액(cal1~cal4) (Foot-and-mouth disease virus serotype O); experiment: sandwich ELISA, cal1, 1E58 coat 8 ug/ml, 1E58-HRP 0.6 ug/ml, 450 nm
[5] = biological target: 구제역 바이러스 혈청형 O 배양액(cal1~cal4) (Foot-and-mouth disease virus serotype O); experiment: sandwich ELISA, cal2, 1E58 coat 2 ug/ml, 1E58-HRP 0.2 ug/ml, 450 nm
[6] = biological target: 구제역 바이러스 혈청형 O 배양액(cal1~cal4) (Foot-and-mouth disease virus serotype O); experiment: sandwich ELISA, cal1, 1E58 coat 4 ug/ml, 1E58-HRP 0.6 ug/ml, 450 nm
[7] = biological target: 구제역 바이러스 혈청형 O 배양액(cal1~cal4) (Foot-and-mouth disease virus serotype O); experiment: sandwich ELISA, cal4, 1E58 coat 4 ug/ml, 1E58-HRP 0.2 ug/ml, 450 nm
[8] = biological target: 구제역 바이러스 혈청형 O 배양액(cal1~cal4) (Foot-and-mouth disease virus serotype O); experiment: sandwich ELISA, cal2, 1E58 coat 8 ug/ml, 1E58-HRP 0.8 ug/ml, 450 nm
[9] = biological target: 구제역 바이러스 혈청형 O 배양액(cal1~cal4) (Foot-and-mouth disease virus serotype O); experiment: sandwich ELISA, cal1, 1E58 coat 2 ug/ml, 1E58-HRP 0.2 ug/ml, 450 nm
[10] = biological target: 구제역 바이러스 혈청형 O 배양액(cal1~cal4) (Foot-and-mouth disease virus serotype O); experiment: sandwich ELISA, cal2, 1E58 coat 8 ug/ml, 1E58-HRP 0.6 ug/ml, 450 nm
[11] = biological target: 구제역 바이러스 혈청형 O 배양액(cal1~cal4) (Foot-and-mouth disease virus serotype O); experiment: sandwich ELISA, cal2, 1E58 coat 2 ug/ml, 1E58-HRP 0.4 ug/ml, 450 nm
[12] = biological target: 구제역 바이러스 혈청형 O 배양액(cal1~cal4) (Foot-and-mouth disease virus serotype O); experiment: sandwich ELISA, cal4, 1E58 coat 4 ug/ml, 1E58-HRP 0.4 ug/ml, 450 nm
[13] = biological target: 구제역 바이러스 혈청형 O 배양액(cal1~cal4) (Foot-and-mouth disease virus serotype O); experiment: sandwich ELISA, cal4, 1E58 coat 2 ug/ml, 1E58-HRP 0.6 ug/ml, 450 nm
[14] = biological target: 구제역 바이러스 혈청형 O 배양액(cal1~cal4) (Foot-and-mouth disease virus serotype O); experiment: sandwich ELISA, cal1, 1E58 coat 1 ug/ml, 1E58-HRP 0.8 ug/ml, 450 nm
[15] = biological target: 구제역 바이러스 혈청형 O 배양액(cal1~cal4) (Foot-and-mouth disease virus serotype O); experiment: sandwich ELISA, cal1, 1E58 coat 2 ug/ml, 1E58-HRP 0.6 ug/ml, 450 nm
[16] = biological target: 구제역 바이러스 혈청형 O 배양액(cal1~cal4) (Foot-and-mouth disease virus serotype O); experiment: sandwich ELISA, cal4, 1E58 coat 2 ug/ml, 1E58-HRP 0.4 ug/ml, 450 nm
[17] = biological target: 구제역 바이러스 혈청형 O 배양액(cal1~cal4) (Foot-and-mouth disease virus serotype O); experiment: sandwich ELISA, cal4, 1E58 coat 2 ug/ml, 1E58-HRP 0.8 ug/ml, 450 nm
[18] = biological target: 구제역 바이러스 혈청형 O 배양액(cal1~cal4) (Foot-and-mouth disease virus serotype O); experiment: sandwich ELISA, cal3, 1E58 coat 8 ug/ml, 1E58-HRP 0.8 ug/ml, 450 nm
[19] = biological target: 구제역 바이러스 혈청형 O 배양액(cal1~cal4) (Foot-and-mouth disease virus serotype O); experiment: sandwich ELISA, cal4, 1E58 coat 8 ug/ml, 1E58-HRP 0.6 ug/ml, 450 nm
[20] = biological target: 구제역 바이러스 혈청형 O 배양액(cal1~cal4) (Foot-and-mouth disease virus serotype O); experiment: sandwich ELISA, cal3, 1E58 coat 1 ug/ml, 1E58-HRP 0.2 ug/ml, 450 nm
[21] = biological target: 구제역 바이러스 혈청형 O 배양액(cal1~cal4) (Foot-and-mouth disease virus serotype O); experiment: sandwich ELISA, cal1, 1E58 coat 1 ug/ml, 1E58-HRP 0.4 ug/ml, 450 nm
[22] = biological target: 구제역 바이러스 혈청형 O 배양액(cal1~cal4) (Foot-and-mouth disease virus serotype O); experiment: sandwich ELISA, cal3, 1E58 coat 1 ug/ml, 1E58-HRP 0.8 ug/ml, 450 nm
[23] = biological target: FMDV 혈청형 SAT1 SAT1/BOT/1/68 (Foot-and-mouth disease virus serotype SAT1); experiment: sandwich ELISA, 1E58 coat 4 ug/ml, 1E58-HRP 0.3 ug/ml, virus culture fluid
[24] = biological target: FMDV 혈청형 O 정읍 (Foot-and-mouth disease virus serotype O); experiment: as above
[25] = biological target: FMDV 혈청형 O 진천 (Foot-and-mouth disease virus serotype O); experiment: as above
[26] = biological target: FMDV 혈청형 A 포천주 (Foot-and-mouth disease virus serotype A); experiment: as above
[27] = biological target: FMDV 혈청형 A Iran05 (Foot-and-mouth disease virus serotype A); experiment: as above
[28] = biological target: 구제역 바이러스 혈청형 O 배양액(cal1~cal4) (Foot-and-mouth disease virus serotype O); experiment: sandwich ELISA, cal2, 1E58 coat 8 ug/ml, 1E58-HRP 0.2 ug/ml, 450 nm
[29] = biological target: 구제역 바이러스 혈청형 O 배양액(cal1~cal4) (Foot-and-mouth disease virus serotype O); experiment: sandwich ELISA, cal4, 1E58 coat 8 ug/ml, 1E58-HRP 0.8 ug/ml, 450 nm
[30] = biological target: 구제역 바이러스 혈청형 O 배양액(cal1~cal4) (Foot-and-mouth disease virus serotype O); experiment: sandwich ELISA, cal1, 1E58 coat 4 ug/ml, 1E58-HRP 0.4 ug/ml, 450 nm

B1: 단클론항체 1E58 (antibody, V domains shown)
VH: EFQLQQSRPELAKPGASVKISCKTSGHTFTTYTMHWVKQSHVKSLEWIGCFNPNNGGATYNQKFKGKATLTMDKSSNTAYVEVRSLTSDDSAVYYCAYGNYVNFDYWGQGTTLTVSS
VL: DIVLTQSPASLAVSLGQRATISYRASKSVSTSGYSYMHWNQQKPGQPPRLLIYLVSNLESGVPARFSGSGSGTDFTLNIHPVEEEDAATYYCQHIRELTRSEGGPSWKN
**Q.** With B1 as the binder, how does the ELISA screening plate (O.D) [1] read?
**A.** Its ELISA screening plate (O.D) is 2.02 O.D.

**Q.** And the ELISA screening plate (O.D) [2]?
**A.** The ELISA screening plate (O.D) was 1.93 O.D.

**Q.** And the ELISA screening plate (O.D) [3]?
**A.** Its ELISA screening plate (O.D) is 2.13 O.D.

**Q.** What about the O.D [4] of the same binder?
**A.** Its O.D is 3.27 O.D.

**Q.** And the O.D [5]?
**A.** Its O.D is 1.8 O.D.

**Q.** And the O.D [6]?
**A.** Its O.D is 4 O.D.

**Q.** And the O.D [7]?
**A.** Its O.D is 0.63 O.D.

**Q.** What about the O.D [8] of the same binder?
**A.** The O.D was 4 O.D.

**Q.** What about the O.D [9] of the same binder?
**A.** The O.D was 3.12 O.D.

**Q.** What about the O.D [10] of the same binder?
**A.** The O.D was 1.84 O.D.

**Q.** And the O.D [11]?
**A.** Its O.D is 2.49 O.D.

**Q.** What about the O.D [12] of the same binder?
**A.** Its O.D is 0.88 O.D.

**Q.** And the O.D [13]?
**A.** Its O.D is 0.87 O.D.

**Q.** And the O.D [14]?
**A.** Its O.D is 3.21 O.D.

**Q.** And the O.D [15]?
**A.** Its O.D is 3.68 O.D.

**Q.** What about the O.D [16] of the same binder?
**A.** Its O.D is 0.56 O.D.

**Q.** And the O.D [17]?
**A.** The O.D was 1.05 O.D.

**Q.** And the O.D [18]?
**A.** The O.D was 1.31 O.D.

**Q.** And the O.D [19]?
**A.** Its O.D is 0.62 O.D.

**Q.** What about the O.D [20] of the same binder?
**A.** Its O.D is 0.54 O.D.

**Q.** And the O.D [21]?
**A.** Its O.D is 2.43 O.D.

**Q.** And the O.D [22]?
**A.** Its O.D is 1.17 O.D.

**Q.** And the O.D (450nm) [23]?
**A.** Its O.D (450nm) is 2.22 O.D.

**Q.** And the O.D (450nm) [24]?
**A.** The O.D (450nm) was 3.86 O.D.

**Q.** And the O.D (450nm) [25]?
**A.** Its O.D (450nm) is 4 O.D.

**Q.** What about the O.D (450nm) [26] of the same binder?
**A.** The O.D (450nm) was 3.87 O.D.

**Q.** What about the O.D (450nm) [27] of the same binder?
**A.** Its O.D (450nm) is 4 O.D.

**Q.** What about the O.D [28] of the same binder?
**A.** Its O.D is 1.24 O.D.

**Q.** What about the O.D [29] of the same binder?
**A.** Its O.D is 0.59 O.D.

**Q.** And the O.D [30]?
**A.** The O.D was 3.15 O.D.
